Biological target: 80S ribosomes from yeast cells expressing wild-type rpL10 (S. cerevisiae) (UniProt P41805)
Experiment: steady-state binding of [32P]-Sdo1p; ribosomes held on cysteine-charged sulfolink resin, unbound Sdo1p in the flow-through counted; 2 pmol ribosomes with 0.25–32 pmol Sdo1p and 100 µg polyU in 50 mM Tris-(OAc)2 pH 7.5, 50 mM NH4(OAc)2, 10 mM Mg(OAc)2, 2 mM DTT, 50 µl, 30°C 20 min

Sequence of UniProt P41805 (P41805 whole entry, looked up): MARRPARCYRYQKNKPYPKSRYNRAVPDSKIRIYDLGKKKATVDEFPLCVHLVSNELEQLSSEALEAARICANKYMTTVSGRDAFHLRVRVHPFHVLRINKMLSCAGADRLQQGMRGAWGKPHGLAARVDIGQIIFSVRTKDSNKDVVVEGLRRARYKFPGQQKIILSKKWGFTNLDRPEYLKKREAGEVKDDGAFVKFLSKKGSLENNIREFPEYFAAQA

B1: Sdo1p with a C-terminal 6× histidine tag and the phosphorylatable kemptide (natural protein)
chain: MPINQPSGQIKLTNVSLVRLKKARKRFEVACYQNKVQDYRKGIEKDLDEVLQIHQVFMNVSKGLVANKEDLQKCFGTTNVDDVIEEIMHKGEIQLSEKERQLMLNKVNNEMLTIVSAKCINPVSKKRYPPTMIHKALQELKFSPVINKPAKLQALEAIKLLVSKQIIPIVRAKMKVKVAISEPSRQPELIEKISKLIASSPGESTKPELDPWTCTGLIDPVNYRDLMTLCDKKGTVQVLDMAVIDNTTHN
modifications: 32P-phosphate on the kemptide (labelled with PKA and [32P]-γ-ATP, 40–60% label incorporation)
- stoichiometry N: 1
